B1: OR4K15 (parent)
chain: GUUAACGGUCAUAGGCCAUGGAAACUAGGAGCACCAUUUCGCUGCCAGUGAAGAAAUGAACAAAGAAAAUCUGGGCCAGGCAGGCAUCAAAAGAAAUAGUCUUGCGCUCAACCAGAAAGUCUGUAAUCAUUUUAAGGGUA

Variants of: B1
Assay: self-cleavage, relative activity (ratio to wild type); higher = more cleavage; in vitro, sequencing; the parent is a self-cleaving ribozyme

First: A11G A94G
Second: U39C A64U
The self-cleavage of the first is lower: 0.95 for the first, 1.77 for the second.

Going from G7A C40U to G1U A54G, the self-cleavage falls from 1.81 to 1.44.

Compared with A56G U103C, U9C C77U is higher in self-cleavage: 0.25 for the first, 1.18 for the second.

Going from U127A A140U to A68G G123A, the self-cleavage rises from 1.25 to 1.45.

Going from G28U A111U to U38C A60C, the self-cleavage rises from 0.3 to 2.1.

Going from G31A U57C to C40A G65A, the self-cleavage falls from 1.2 to 1.

First: A22U U49A
Second: U19C A125U
The self-cleavage of the first is lower: 1.78 for the first, 2.21 for the second.

Compared with A33C G50U, A67G A89U is higher in self-cleavage: 1.41 for the first, 1.53 for the second.

Going from C40G A94G to A11G U70C, the self-cleavage rises from 0.63 to 0.76.

First: C107A U108C
Second: A24G U72A
The self-cleavage of the first is lower: 0.02 for the first, 0.28 for the second.

Going from U70A U122C to A68G A90U, the self-cleavage rises from 1.14 to 1.58.

Going from U2A U37C to A114U G123A, the self-cleavage falls from 1.34 to 0.11.

Going from U3C A30G to A30G U49G, the self-cleavage rises from 0.92 to 1.48.

Going from G1A A13C to A82G A96G, the self-cleavage falls from 1.66 to 0.59.

First: A5U A91G
Second: A33C A89G
The self-cleavage of the first is lower: 0.86 for the first, 1.31 for the second.

Compared with U108A U132A, U49A A117G is higher in self-cleavage: 0.01 for the first, 0.49 for the second.

Compared with A68G G73U, A30G A67G is higher in self-cleavage: 0.07 for the first, 0.91 for the second.

First: A56G U133C
Second: A11G A140U
The self-cleavage of the first is higher: 1.43 for the first, 1.31 for the second.

First: A95G G137A
Second: A54G
The self-cleavage of the first is lower: 0.66 for the first, 1.06 for the second.

First: A90U U120C
Second: A33C A140U
The self-cleavage of the first is higher: 1.63 for the first, 1.4 for the second.

Compared with G1U A95G, U38C U57G is higher in self-cleavage: 0.56 for the first, 1.4 for the second.

Going from U87C U103G to C112G U122A, the self-cleavage rises from 0.01 to 0.05.

Compared with A51C A95U, C46A is lower in self-cleavage: 1.79 for the first, 1.44 for the second.

Compared with C76G, A30G U139C is higher in self-cleavage: 0.16 for the first, 1.03 for the second.

Going from C16G A66G to U39A A91G, the self-cleavage rises from 1.14 to 1.56.

Going from C10U A110G to U12C U49C, the self-cleavage rises from 0.19 to 0.44.

First: U37G G138A
Second: A33U G99A
The self-cleavage of the first is higher: 1.23 for the first, 1.09 for the second.

Going from A30G G137A to A67G C121A, the self-cleavage rises from 1.06 to 2.73.

Compared with C10U A63U, A24G A52G is higher in self-cleavage: 0.69 for the first, 1.44 for the second.

Going from C61U A126G to C16G A59U, the self-cleavage rises from 0.55 to 1.17.

Going from A24C C40A to A4G A64G, the self-cleavage falls from 1.99 to 1.21.

First: A89G U108A
Second: A82G G136A
The self-cleavage of the first is lower: 0.02 for the first, 0.9 for the second.

Compared with A54G A56C, U2A A54G is lower in self-cleavage: 1.4 for the first, 0.63 for the second.

Compared with A96G A135G, A27U A68G is lower in self-cleavage: 1.91 for the first, 1.61 for the second.

Compared with U9C A129U, U37C C105U is lower in self-cleavage: 0.98 for the first, 0.15 for the second.

First: A56U U130C
Second: U19C A54C
The self-cleavage of the first is lower: 0.34 for the first, 1.2 for the second.

First: U108A A110G
Second: U2C C76U
The self-cleavage of the first is lower: 0.01 for the first, 0.23 for the second.

Going from G41U A68G to A22G A36U, the self-cleavage falls from 1.46 to 0.87.

Going from A52G G123A to A5U A68G, the self-cleavage rises from 0.48 to 0.82.

First: A52G A117G
Second: A82C A94G
The self-cleavage of the first is higher: 1.48 for the first, 0.19 for the second.

First: U26C U120C
Second: A47G A54U
The self-cleavage of the first is lower: 0.85 for the first, 0.97 for the second.

First: A24G A51C
Second: A18U A114U
The self-cleavage of the first is higher: 0.87 for the first, 0.08 for the second.

Going from A52U A82G to G14U A66G, the self-cleavage falls from 1.09 to 0.9.

Compared with U103A U131C, A92G A116G is lower in self-cleavage: 0.45 for the first, 0.44 for the second.

Going from A55G A96U to A51U U100C, the self-cleavage rises from 1.11 to 2.13.

Compared with A13G A89G, A64U A118G is higher in self-cleavage: 1.31 for the first, 1.42 for the second.

First: U9C A47G
Second: A55G U132A
The self-cleavage of the first is lower: 1.08 for the first, 1.61 for the second.

Going from G20A A56G to A36U A59U, the self-cleavage falls from 1.66 to 1.33.

Going from G15C U49C to A90G A116U, the self-cleavage falls from 1.78 to 0.5.

First: A68G U130A
Second: A56G U139A
The self-cleavage of the first is lower: 0.91 for the first, 1.41 for the second.

Compared with U57A G123C, A52G A78G is lower in self-cleavage: 1.58 for the first, 0.28 for the second.

Compared with G73U A110G, G15A A92G is higher in self-cleavage: 0.03 for the first, 1.65 for the second.

First: G50A
Second: U12A A63U
The self-cleavage of the first is lower: 1.68 for the first, 1.88 for the second.

First: A51U A125G
Second: U49C A56G
The self-cleavage of the first is lower: 0.42 for the first, 1.57 for the second.

Going from A23G G84U to A13U U39C, the self-cleavage rises from 0.21 to 1.04.

Compared with A95G U103A, A82G U103C is higher in self-cleavage: 1.55 for the first, 2.05 for the second.

Going from C25G A30G to A60U U127C, the self-cleavage rises from 0.59 to 0.92.

Compared with U2C U9C, A22G A94C is higher in self-cleavage: 0.83 for the first, 1.21 for the second.

Going from A23G A134U to U70C U130A, the self-cleavage falls from 0.77 to 0.19.

Going from A36G A60G to U38C G93U, the self-cleavage rises from 1.28 to 2.26.

First: A51G A94U
Second: A66G C105A
The self-cleavage of the first is higher: 1.78 for the first, 0.05 for the second.

First: C17U A51G
Second: A22G U97G
The self-cleavage of the first is lower: 0.85 for the first, 1.42 for the second.

Compared with U26A U43C, U2A A63U is higher in self-cleavage: 1.45 for the first, 1.62 for the second.

Going from A56G U102A to C71U A135C, the self-cleavage falls from 0.97 to 0.42.

Compared with A64U A95G, G41A A91G is lower in self-cleavage: 1.95 for the first, 1.55 for the second.

Compared with U72G A78G, G20A U49A is higher in self-cleavage: 0.39 for the first, 1.67 for the second.

Compared with C61U A62G, A118U U130C is lower in self-cleavage: 1.65 for the first, 0.4 for the second.

Going from G73A A95G to U39C A86U, the self-cleavage rises from 0.28 to 2.13.

Going from A56U U97C to A36U U87C, the self-cleavage rises from 1.16 to 1.76.

Going from A64G A86G to A24C U130C, the self-cleavage falls from 1.15 to 0.42.

First: A51G U97C
Second: A111G U122C
The self-cleavage of the first is higher: 1.75 for the first, 0.01 for the second.

Compared with A94G A114C, A63G A129G is higher in self-cleavage: 0.05 for the first, 0.9 for the second.

Compared with U72A A111U, U87C U131A is higher in self-cleavage: 0.01 for the first, 0.39 for the second.

Going from A24G A116U to U87A U122C, the self-cleavage rises from 0.46 to 1.28.

Going from A66G A90C to A64U A135G, the self-cleavage rises from 0.17 to 1.22.

Going from A52G A125U to A89G U131A, the self-cleavage falls from 0.86 to 0.3.

First: A92G C113U
Second: C77U A82G
The self-cleavage of the first is lower: 0.14 for the first, 1.26 for the second.

Compared with U38G U108C, A52G A89U is higher in self-cleavage: 0.03 for the first, 1.7 for the second.

Going from A64G A92G to A67G A90U, the self-cleavage falls from 1.48 to 1.13.

Compared with U19C U103C, U19A A59G is higher in self-cleavage: 0.66 for the first, 1.12 for the second.

Compared with U9C A23C, G75C A117G is lower in self-cleavage: 1.27 for the first, 0.15 for the second.

Compared with U72C U131A, A52G A54G is higher in self-cleavage: 0.1 for the first, 1.41 for the second.

Compared with U39A A68C, C6U A69G is lower in self-cleavage: 1.75 for the first, 1.05 for the second.

With G53A A91G the self-cleavage was 1.6.

Source: the RNAGym collection of RNA variant scans (doi:10.7554/elife.90254)
